The results in this text go back to patent US20240092836A1.

Bridges are numbered along the chain shown (N, C = ends). Primed or numbered codes have the meaning given here. Where no end group is shown, it is not given here. The star is where a group is joined. Biotin = O=C1N[C@H]2[C@H](CS[C@H]2CCCCC(=O)*)N1; PEG4 = NCCOCCOCCOCCOCCC(=O)O; PEG4′ = not defined here

First the molecules themselves.
B1: H12SSI-Ctla4-3-02 (MBP fusion) (peptide, not shown: large carriers; small tags and cut ends)
chain: GGCMHPFLLVVSHHFCGG
B2: biotinylated clone #19: Biotin-PEG4-… (peptide)
peptide: {Biotin-PEG4}-KCMHPFLPIVSHHFCER
modifications: disulfide 2-15
B3: C4-302mat-3-1-12 (peptide, not shown: large carriers; small tags and cut ends)
chain: GGCMHPFLPVVSRHFCGR
B4: C4-302mat-3-100-44 (peptide, not shown: large carriers; small tags and cut ends)
chain: GGCLHPFLPIVSHHFCGR
B5: C4m#19-5th2w-NNS6-80 (peptide, not shown: large carriers; small tags and cut ends)
chain: GGCLHPFLPIVSWHFCPC
B6: C4m#19-5th4w-NN6-49 (peptide, not shown: large carriers; small tags and cut ends)
chain: GGCMHPYLPIRSFHFCSC
B7: C4m#19-5th4w-NN6-80 (peptide, not shown: large carriers; small tags and cut ends)
chain: GGCRHPFLPIFSWHFCAV
B8: C4m3127-4th-NNS6-95 (peptide, not shown: large carriers; small tags and cut ends)
chain: GGCWHPVLPIRSGHFCSR
B9: C4m3127-4th-NNS6-37 (peptide, not shown: large carriers; small tags and cut ends)
chain: GGCWHPVLPIRSIHFCGC
B10: C4m#19-5th2w-NNS6-93 (peptide, not shown: large carriers; small tags and cut ends)
chain: GGCFHPFLPIQSRHFCCR
B11: C4m#19-5th4w-NN6-40 (peptide, not shown: large carriers; small tags and cut ends)
chain: GGCFHPFLPIRSHHFCML
B12: C4m#19-5th2w-NNS6-41 (peptide, not shown: large carriers; small tags and cut ends)
chain: GGCWHPVLPIRSDHFCCR
B13: C4-302mat-3-100-9 (peptide, not shown: large carriers; small tags and cut ends)
chain: GGCKHPFLPVVSHHFCGG
B14: C4-302mat-1-1-35 (peptide, not shown: large carriers; small tags and cut ends)
chain: GGCMHPFLPVASHHFCGG
B15: C4-302mat-2-100-18 (peptide, not shown: large carriers; small tags and cut ends)
chain: GGCMHPFLPVVSHHFCRG
B16: C4-302mat-1-1-37 (peptide, not shown: large carriers; small tags and cut ends)
chain: GGCMHPFLRVVSHHFCGG
B17: C4-302mat-2-1-38 (peptide, not shown: large carriers; small tags and cut ends)
chain: GGCLHPFLPLVSHHFCGG
B18: C4-302mat-2-1-2 (peptide, not shown: large carriers; small tags and cut ends)
chain: GGCLHPFLPVVSHHFCGD
B19: C4-302mat-3-1-5 (peptide, not shown: large carriers; small tags and cut ends)
chain: GGCMHPFLPVVSRHFCGG
B20: C4-302mat-3-100-12 (peptide, not shown: large carriers; small tags and cut ends)
chain: GGCMHPYLPVISHHFCGR
B21: C4-302mat-2-100-27 (peptide, not shown: large carriers; small tags and cut ends)
chain: GGCMHPFLPIVSHHFCGS
B22: C4-302mat-3-1-22 (peptide, not shown: large carriers; small tags and cut ends)
chain: GGCMHPFLPVASHHFCGR
B23: C4-302mat-2-100-4 (peptide, not shown: large carriers; small tags and cut ends)
chain: GGCMHPFLQVVSHHFCGG
B24: C4-302mat-3-1-45 (peptide, not shown: large carriers; small tags and cut ends)
chain: GGCRHPFLPIVSRHFCRG
B25: C4-302mat-3-1-10 (peptide, not shown: large carriers; small tags and cut ends)
chain: GGCKHPYLPVASHHFCRG
B26: C4-302mat-2-1-3 (peptide, not shown: large carriers; small tags and cut ends)
chain: GGCMHPFLPVTSHHFCGG
B27: C4-302mat-3-100-37 (peptide, not shown: large carriers; small tags and cut ends)
chain: GGCMHPFLPVVSHHFCGR
B28: C4-302mat-3-1-31 (peptide, not shown: large carriers; small tags and cut ends)
chain: GSCMHPFLPVASRHFCGR
B29: C4-302mat-3-1-35 (peptide, not shown: large carriers; small tags and cut ends)
chain: GGCMHPFLQTVSHHFCGG
B30: C4-302mat-3-1-32 (peptide, not shown: large carriers; small tags and cut ends)
chain: GGCMHPFLPILSHHFCAG
B31: C4-302mat-3-100-27 (peptide, not shown: large carriers; small tags and cut ends)
chain: GGCMHPFLPVASHHFCAG
B32: C4-302mat-3-1-23 (peptide, not shown: large carriers; small tags and cut ends)
chain: GGCMHPFLPIASLHFCGR
B33: C4-302mat-2-1-27 (peptide, not shown: large carriers; small tags and cut ends)
chain: GGCMHPYLPVISHHFCGG
B34: C4-302mat-3-100-20 (peptide, not shown: large carriers; small tags and cut ends)
chain: GGCVHPFLPVVSHHFCRG
B35: C4-302mat-1-1-24 (peptide, not shown: large carriers; small tags and cut ends)
chain: GGCMHPFLPVVSHHFCGG
B36: C4-302mat-3-1-48 (peptide, not shown: large carriers; small tags and cut ends)
chain: GGCMHPFLPVVSHHFCGA
B37: biotinylated H12SSI-Ctla4-3-02: Biotin-PEG4-… (peptide)
peptide: {Biotin-PEG4′}-KCMHPFLLVVSHHFC
modifications: disulfide 2-15

In one assay the target is Recombinant Human CTLA4-Fc chimera (R&D systems) (human) (UniProt P16410). Briefly: BLItz (BLI), biotinylated CTLA-4 on SA chip, MBP fusion as analyte.
Broadly, the Kd is a measure of binding affinity in units of concentration. Usually koff stands for the first-order rate constant of dissociation. A word on the kon: it is a measure of how fast the partners come together. For the molecule B1, the Kd worked out at 3880 nM, the off-rate (koff) stood at 0.0123 s⁻¹ and the kon amounted to 3180 M⁻¹ s⁻¹.

A further assay shares this target. Briefly: BLItz (BLI), synthetic biotinylated peptides.
In the case of B2, the fold higher affinity than the original clone (H12SSI-Ctla4-3-02) stood at 3 fold.

A further assay shares this target. Briefly: ELISA EC50, purified MBP fusions.
B3: the fold improvement of affinity over the original clone turned out to be 50 fold. Still for that read-out and setting: the same measure for B4: 50 fold.

A further assay has the same target. Briefly: ELISA, signal over SA. For orientation: An ELISA detects its analyte on a solid surface through an enzyme-linked reagent.
For B5, the ELISA S/N(SA) is 3.6. Still for that read-out and setting: to B6 belongs 4; to B7, 3.8. Turning to B8, the ELISA S/N(SA) was 3.4. The same measure, in the same setting: the same measure for B9: 3.5. The same measure, in the same setting: to B10 belongs 3.4; to B11, 4. As for B12, the ELISA S/N(SA) came to 3.1.

A further assay has the same target. Briefly: ELISA, purified MBP fusion on immobilised CTLA-4.
What is called EC50 is the concentration that produces a half-maximal response. In the case of B13, the concentration for a half-maximal effect (EC50) came out at 832 nM. B14: the concentration for a half-maximal effect (EC50) is 288 nM. Still for that read-out and setting: to B15 belongs 369 nM. With B16, the half-maximal effective concentration (EC50) was 1490 nM. With B17, the concentration giving a half-maximal response (EC50) worked out at 867 nM. Turning to B18, the EC50 was found to be 474 nM. In the case of B19, the concentration giving a half-maximal response (EC50) was found to be 674 nM. With B20, the EC50 turned out to be 217 nM.

With B3, the concentration for a half-maximal effect (EC50) was determined as 85 nM. For B1, the EC50 was 3920 nM. Turning to B4, the 50% effective concentration (EC50) is 82 nM. On the same count and under the same terms, the same measure for B21: 189 nM; for B22: 222 nM; for B23: 4180 nM. On to B24, for which the EC50 worked out at 300 nM. Consider B25, for which the EC50 was 703 nM. The same measure, in the same setting: the same measure for B26: 826 nM; for B27: 225 nM; for B28: 342 nM. Regarding B29, the 50% effective concentration (EC50) came to 668 nM. Turning to B30, the EC50 was 322 nM.

B31: the EC50 was 352 nM. As to B32, the EC50 was found to be 160 nM. Consider B33, for which the EC50 is 1640 nM. For the molecule B34, the 50% effective concentration (EC50) stood at 889 nM. Regarding B35, the 50% effective concentration (EC50) was 1040 nM. For B36, the 50% effective concentration (EC50) was 187 nM.

For the next assay the target is unchanged. Briefly: BLItz (BLI), biotinylated peptide on SA chip, CTLA-4 protein as analyte.
On to B37, for which the Kd came out at 191 nM, the koff stood at 0.022 s⁻¹ and the kon is 115000 M⁻¹ s⁻¹. As for B2, the dissociation constant (Kd) came to 61.8 nM, the koff was found to be 0.0128 s⁻¹ and the association rate constant (kon) was determined as 208000 M⁻¹ s⁻¹.
